Test results reported in the DeepSol protein solubility set.

Assay: soluble on expression in E. coli; label from the status in PepcDB or PDB records

**Q.** For “MMIEPKEKASIGIIGGSGLYDPQILTNVKEIKVYTPYGEPSDNIILGELEGRKVAFLPRHGRGHRIPPHKINYRANIWALKSLGVKWVIAVSAVGSLRLDYKPGDFVVPNQFIDMTKGRTYTFFDGPTVAHVSMADPFCEHLRSIILDSAKDLGITTHDKGTYICIEGPRFSTRAESIVWKEVFKADIIGMTLVPEVNLACEAEMCYSVIGMVTDYDVFADIPVTAEEVTKVMAENTAKVKKLLYEVIRRLPEKPDERKCSCCQALKTALVLEHHHHHHHH”, which “soluble on expression in E. coli” value is on record?
**A.** soluble

**Q.** For “MGSDKIHHHHHHMYEFNDTIRGTPKVTFNLKTTIGGKVLEDELNNGFGTFRTLTVSGRDVVDLEHQTTSVLGRNGEYFHNATVEVRKLEIKAKISGKDNKSMRLQYEKLNKLIVSHNQVFLSFSDEPDRNYLGIFKSKDVPEEVSNEQIIGLTFICYNPFKMSDVKTKKGTSIQNGGLFQTKPIITLNLSSPTKEIKLLHVESQKYIRLTGTYTTDEIKIDMATGKITQNGRNILGDLDMINSRYFELLPGNNTLQCANAAITAEFREVYL”, which “soluble on expression in E. coli” value is on record?
**A.** not soluble

**Q.** For “MVVRTWRSMQERYNLIGSKCKTCGTVYFPARSVCPECRRKGELEDYKLNGKGKVYTYSVVYAAPKDFEKQSPYVIGIVELEEGTKITSQIDCEPEEVKIGMPVEATFRKIREDGCDGVISYGYKFVPTEQ”, which “soluble on expression in E. coli” value is on record?
**A.** not soluble

**Q.** Which “soluble on expression in E. coli” value does the source give for “ADRHYSPIDRFLLQADSALRTLLPFSGQPARPSPAIVEPDGELSEEDTRHIAGLMRINHTGEVCAQALYQGQSLTAKLPEVREAMEEAAEEEIDHLAWCEQRIRQLGSRPSVLNPIFYGLSFGVGAAAGLVSDRVSLGFVAATEDQVCKHLDEHLAQIPQEDRKSRAILEQMRIDEEQHSSNALAAGGLRFPAPVKLGMSLLAKV” here?
**A.** not soluble

**Q.** With “MGSDKIHHHHHHMARQFVYFMQGLTKAYPTRKVLDNVHLSFYPDAKIGVLGVNGAGKSTLLKIMAGIDKEYTGEAWVAEGARVGYLEQEPQLDPALTVRENVMLGVAKQKAILDRYNELAMNYSEETADEMTALQDQIESAGLWDLDSKVDQAMDALRCPPDDADVTKLSGGERRRVALCKLLLDQPDLLLLDEPTNHLDAESVSWLESHLRNYPGAILIVTHDRYFLDNVTSWILELDRGRGIPYEGNYSSWLVQKQKRLLQEGREDAAHQKTLEREQEWIASSPKARQAKSKARYQRYEELLAKASEKQTQTAQIIIPVAERLGNNVVDFEHLTKGFGDKLLIDDLTFKLPPGGIVGVIGPNGAGKTTLFRMITGQEKPDQGTITVGETVHLGYVDQSRDSLDAKKTVWEEISGGNELILLGKKEVNSRGYCSAFNFKGGDQQKKVGSLSGGERNRVHLAKMLKSGANVLLLDEPTNDLDVDTLRALEEALEDFAGCAVIISHDRWFLDRIATHILAFEDDSHVEWFEGNFQDYEKDKMRRLGQDAIIPHRAKYKKLTR” as the sequence, how does the “soluble on expression in E. coli” value read?
**A.** not soluble

**Q.** For “MSTLGDLLAEHTVLPGSAVDHLHAVVGEWQLLADLSFADYLMWVRRDDGVLVCVAQCRPNTGPTVVHTDAVGTVVAANSMPLVAATFSGGVPGREGAVGQQNSCQHDGHSVEVSPVRFGDQVVAVLTRHQPELAARRRSGHLETAYRLCATDLLRMLAEGTFPDAGDVAMSRSSPRAGDGFIRLDVDGVVSYASPNALSAYHRMGLTTELEGVNLIDATRPLISDPFEAHEVDEHVQDLLAGDGKGMRMEVDAGGATVLLRTLPLVVAGRNVGAAILIRDVTEVKRRDRALISKDATIREIHHRVKNNLQTVAALLRLQARRTSNAEGREALIESVRRVSSIALVHDALSMSVDEQVNLDEVIDRILPIMNDVASVDRPIRINRVGDLGVLDSDRATALIMVITELVQNAIEHAFDPAAAEGSVTIRAERSARWLDVVVHDDGLGLPQGFSLEKSDSLGLQIVRTLVSAELDGSLGMRDARERGTDVVLRVPVGRRGRLML”, which “soluble on expression in E. coli” value is on record?
**A.** not soluble

**Q.** With “MPHPTHCRSANAVFRARMEFGLLEAPVSFSTLMDKRERGSFDSQFLIAMPGLDDGNFARSVIYICAHSDAGAMGFIINRPQQITFTDILLHLKLVDSNDAIMLPNRTREFPIQCGGPVESGRGFVLHSDDYLSESSIPVSDDISLTATLDIVRAISNGRGPQKATMMLGYAGWGPGQLENEIANNGWLNCPAAEELIFDRGLDNKYERALALMGVDARMLSTDAGHALEHHHHHH” as the sequence, how does the “soluble on expression in E. coli” value read?
**A.** soluble

**Q.** Which “soluble on expression in E. coli” value does the source give for “MSLVTSMTFYETRFPEDISYGSTGGPEFTTSIIETNNGYEYRKINISYPRNKYNIMYSVKSEEELLKLINFFYIHKGKAIGFRFKDWADYKAIQQKIGIGDNHQTTFQLVKTYKVDQFSYIRTITKPVINTVKIYYNDSIKNNGFSVNLSNGQIKFDIAPKDGIEIFADYEFDVPVRFDSDYLPYSIDNYKQYNCNNITLIEVKTEGHHHHHH” here?
**A.** not soluble

**Q.** With “MAKYQELVEQLKRQIKSGIWHPGDKLPSLRRQSEHSGLSLMTVLHAYQILESQGWVTSQPRSGYRVAPNIKSSNEPQAPAAVSWTEQVDINEFIFDVLQASKNPSMINFGFAYPDPSLYPRYHVNRAMSAAARNMPISTTFDNLPPGNEQLRTIIAKRYAAKGIEISPDEIVITAGALEALTLSLQACTRPGDWVVVESPAFYGALQSLERLGLKALSVRTDPVTGIDLDSLERALQTHDVKACWLMSNFQNPLGFTLSNEKKQKLIELTQRYNVPVIEDDVYSELHAENDSVYPLRMFDDTGNTMLCSSFSKSLIAGLRIGWVAAGKRALEVQKLQLMSTLATSAPVQMTLVHYLTSRNYESHLKQLRKKLFERKSKMTNLLNELLPEEVKVLSQSGGYFIWLELPKHIDALQIYREALKDNISIAPGKMFSLTEQYDHCIRLNASFELNDKYVHALNLLANIIRDHLAK” as the sequence, how does the “soluble on expression in E. coli” value read?
**A.** not soluble

**Q.** With “MAINLNTFAKVSADWYELKKSQPLAENTIKDIWRSLEKYVFPFIGTLPITQLTARHFISALEPIQASGKLETVKRVSQRINEVMDYAVNSGLIPANPAAKIRKAFQTPVKTHMLEHHHHHH” as the sequence, how does the “soluble on expression in E. coli” value read?
**A.** not soluble

**Q.** With “HVEQSNKDELLLEEITSWLEKNTDGKIVVFCGDKTVADNVYKFIEQNLPSVERHIDGKLPGFNISPQYNVLICDQSGEDGLNLQGKCRLAIHYSLPRTVMRIEQRIGRLNRYSASSIGVLPV” as the sequence, how does the “soluble on expression in E. coli” value read?
**A.** not soluble

**Q.** Which “soluble on expression in E. coli” value does the source give for “MGSDKIHHHHHHMIKEIRQRIENFESDYVFTYQDLNLSPERSERVIKILNRLVAEGIIAKISKGRFYKPKKSVFGMLKPKLEEVVKDFLEKDGEVIGYMTGYLAFNRLGLTTQVPNIIQIGTNVRKNKTVRGMFTISFVIQSNPITKENIPLLQLLDAIKFIKEIPDTTTSQSCKCIMTIIQNLNKKDRDELLILAKKYPPMVRALLGAMVENIYGTNKALPLWNTLNPLTLYNVKIDKQVLPEVRKWRIQ” here?
**A.** not soluble

**Q.** Which “soluble on expression in E. coli” value does the source give for “MAHRPRWTLSQVTELFEKPLLDLLFEAQQVHRQHFDPRQVQVSTLLSIKTGACPEDCKYCPQSSRYKTGLEAERLMEVEQVLESARKAKAAGSTRFCMGAAWKNPHERDMPYLEQMVQGVKAMGLEACMTLGTLSESQAQRLANAGLDYYNHNLDTSPEFYGNIITTRTYQERLDTLEKVRDAGIKVCSGGIVGLGETVKDRAGLLLQLANLPTPPESVPINMLVKVKGTPLADNDDVDAFDFIRTIAVARIMMPTSYVRLSAGREQMNEQTQAMCFMAGANSIFYGCKLLTTPNPEEDKDLQLFRKLGLNPQQTAVLAGDNEQQQRLEQALMTPDTDEYYNAAALLEHHHHHH” here?
**A.** not soluble

**Q.** For “MRVELIYDKRNVGSLANATEIIRAELTKRVHRVFPDAEVNVKAMHANGINTNASKQEKSVLNRLVEEMFDEADEWLNNEF”, which “soluble on expression in E. coli” value is on record?
**A.** not soluble

**Q.** Which “soluble on expression in E. coli” value does the source give for “MIYSMTAYARKEVKGDWGSAVWEIRSVNQRYLETYFRLPEQFRGLEPLLRERFRQRLSRGKIECHLRFEANPAAQSHLTINEGLAQQVINAANQIMHMTGELSRINPFQVMQWPGVMETPEQDMDAINQALLSAFDEGVDEFIAARGREGDNMKALIEQRLQAISAEVVKVRARMPEILEWQRERLFSKFEEAKIELDASRVEQELILLAQKSDVAEELDRLDSHVKEAREVLKKGGSCGRKLDFMMQEFNRESNTLASKSISTDITASGVELKVLIEQMREQIQNIE” here?
**A.** not soluble

**Q.** For “MAHHHHHHMKCQKIRRDIFIYMLYNFSFCAGKKEDKDKGKDKDKEKKKLESVPISHMGKKKKKNKGTSGHSKLPNVTPNTKCRLKLLKLERIKDYLLLEEEYITNQEQIKSSDDKNYVKLKIDDLRGSPVSVGTLEELIDENHGIIATSVGPEYYVNILSFVDKDLLEPGCSVLLNNKTNSVVGILLDEVDPLVSVMKVEKAPLESYADIGGLESQIQEIKEAVELPLTHPELYEDIGIKPPKGVILYGPPGTGKTLLAKAVANETSATFLRVVGSELIQKYLGDGPKLVREMFKVAEEHAPSIVFIDEIDAVGTKRYEATSGGEREIQRTMLELLNQLDGFDSRGDVKVIMATNRIDSLDPALIRPGRIDRKIQLPNPDTKTKRRIFQIHTSKMTMSPDVDLEEFVMSKDELSGADIKAICTEAGLLALRERRMKITQADLRKARDKALFQKKGNIPEGLYL”, which “soluble on expression in E. coli” value is on record?
**A.** not soluble

**Q.** Which “soluble on expression in E. coli” value does the source give for “MSERLYYFVIVGRDDRVLYDLLYPASLSELDWRTSSELSSPAERGDFEPHHFIPSIQVLLQFVAYSALDHIEEKYWLTSARSLKHIFRFRDWSASVQLTPNAATRFVLVHGASDDASRNVRAFLHAVYEAYVPHVVCNPFQEEDAPITSKRFHEVAKNLAKRYFSG” here?
**A.** not soluble

**Q.** With “MPTFRSNIVVFNLIARRAFTTTSTKNMGFVEKVRLLDYWKIQDSALQSEFPRSRLVLMVDRRLLVTKDQPDVQMVELSFDDLKQRLGEYGLQFDLSNSCLLDALSTDVDMIPLFGTSIDAADPPEDSPISKKEVLKQLGNSLGGRFTDIRMAMLTMREERQRNLLAKFQSLTKWASIYRRCPKCAAALKMRSSKSGAECVTCQRVYYPTFSPVSITLITDPTNEHALLVRHRGSAGGVFTAVAGFAHSGESMAECARREIAEEVGIEVDSIRSLDMSQPWPMPDSSLMIAHVAVAKIDQKISVCPDELETAQWFTRHQVKEALTTTLADPLLKNLPRTLDDRQTLHYIPPAGAIAHQMIRQWVDGKLENHNSRI” as the sequence, how does the “soluble on expression in E. coli” value read?
**A.** not soluble

**Q.** With “MIVVSGSQSQNLAFKVAKLLNTKLTRVEYKRFPDNEIYVRIVDEINDDEAVIINTQKNQNDAIVETILLCDALRDEGVKKITLVAPYLAYARQDKKFNPGEAISIRALAKIYSNIVDKLITINPHETHIKDFFTIPFIYGDAVPKLAEYVKDKLNDPIVLAPDKGALEFAKTASKILNAEYDYLEKTRLSPTEIQIAPKTLDAKDRDVFIVDDIISTGGTMATAVKLLKEQGAKKIIAACVHPVLIGDALNKLYSAGVEEVVGTDTYLSEVSKVSVAEVIVDLL” as the sequence, how does the “soluble on expression in E. coli” value read?
**A.** soluble

**Q.** For “MSTPLMQRSLSPQEWQVFQRGDRWTGARLHQPLNLLLIGSKVLTSDLDHPPDPNLTYHALVNSVEGLSDSLLLVRFDPVQQRLVILSIPRDTLTFIPGRGDAKINEANALGGPALAAATVSELLGNVPIDRYLRINVQGIEKLIDALGGVTLDVPIAMRYRDESQHLYIDLQAGRHHLNGQQALQFLRFRYDALGDIGRVQRQQMFLRTLMEQTARPETLARTPHILSIIRENLDTNLTVEELMSLGQFLTRLPRSRVQFLLLPGNFNGTTEEVAVSYWLPNYQRIAWLTDQYFRDTPTADPRETGLPSPAQVRIAIQNTNLPQSLVMRLSEQLATAGYPHPLVAEPLPQPIPITRIIAQQGDLAAARQVQLLLGFGEVRVESTGVLASDVTIQLGDDARDRLQLRRTTSLLEHHHHHH”, which “soluble on expression in E. coli” value is on record?
**A.** soluble

**Q.** Which “soluble on expression in E. coli” value does the source give for “MKGIEVENLKFSHNGREILHDINFEIDKGSFLIILGPNGAGKTTLLRCIAGILKYKGSIKVLGNDIKELSRIELAKLLAYVPQRIEPGFLRVFDFVLLGRKPYMGLNPGRKDLKAVEDALRLLGIQRLEDRIMKTLSGGELQKVAIARAIAQETPVILLDEPTNNLDPKSQIEVMEIIKDLVKRGKTVVTVMHDLTLALRFGEEFLFLKDGRSTGLLTREELEEKILSETYGVKIRVARVEGEVIPLVGL” here?
**A.** soluble

**Q.** Which “soluble on expression in E. coli” value does the source give for “MGHHHHHHSHMHGPKPTVQEIVLELCPCNEIEPVDLVCHEQLGDSDDEIDEPDHAVNHHQHQLLARRDEQQRHTIQCTCCKCNNLLQLVVEASRENLRKLELLFMDSLNFVCPWCATETQ” here?
**A.** not soluble
